In patent publication US20220042033A1, “COMPOSITION AND METHOD FOR CONFERRING AND/OR ENHANCING TOLERANCE AGAINST HERBICIDES BY USING VARIANTS OF PPO” (FarmHannong Co., Ltd., priority 2017, published 2022):
Changes are numbered by the printed parent chain. Names and notes keep the numbering of the source.

B1: A170C + I311M + L332T + M365I: MxPPO (SEQ ID NO: 3) variant (protein)
chain: MHHMPRTTGMNVAVVGGGISGLAVAHHLRSRGTDAVLLESSARLGGAVGTHALAGYLVEQGPNSFLDREPATRALAAALNLEGRIRAADPAAKRRYVYTRGRLRSVPASPPAFLASDILPLGARLRVAGELFSRRAPEGVDESLAAFGRRHLGHRATQVLLDAVQTGIYCGDVEQLSVAATFPMLVKMEREHRSLILGAIRAQKAQRQAALPAGTAPKLSGALSTFDGGLQVLIDALAASLGDAAHVGARVEGLAREDGGWRLIIEEHGRRAELSVAQVVLAAPAHATAKLLRPLDDALAALVAGIAYAPMAVVHLGFDAGTLPAPDGFGFTVPAEEQRRMLGAIHASTTFPFRAEGGRVLYSCIVGGARQPGLVEQDEDALAALAREELKALAGVTARPSFTRVFRWPLGIPQYNLGHLERVAAIDAALQRLPGLHLIGNAYKGVGLNDCIRNAAQLADALVAGNTSHAP
modifications: Synthetic (Protoporphyrinogen IX oxidase (MxPPO) of Myxococcus xanthus)
B2: I168C + A170C + I311M + M365I: MxPPO (SEQ ID NO: 3) variant (protein)
chain: B1 chain with I168C, T332L
modifications: Synthetic (Protoporphyrinogen IX oxidase (MxPPO) of Myxococcus xanthus)
B3: R95A + A170C + L332T + M365I: MxPPO (SEQ ID NO: 3) variant (protein)
chain: B1 chain with R95A, M311I
modifications: Synthetic (Protoporphyrinogen IX oxidase (MxPPO) of Myxococcus xanthus)
B4: I168C + A170C + L332T + M365V: MxPPO (SEQ ID NO: 3) variant (protein)
chain: B1 chain with I168C, M311I, I365V
modifications: Synthetic (Protoporphyrinogen IX oxidase (MxPPO) of Myxococcus xanthus)
B5: I311M + M365V: MxPPO (SEQ ID NO: 3) variant (protein)
chain: B1 chain with C170A, T332L, I365V
modifications: Synthetic (Protoporphyrinogen IX oxidase (MxPPO) of Myxococcus xanthus)
B6: L332T + M365V: MxPPO (SEQ ID NO: 3) variant (protein)
chain: B1 chain with C170A, M311I, I365V
modifications: Synthetic (Protoporphyrinogen IX oxidase (MxPPO) of Myxococcus xanthus)
B7: I311M + L332T + M365V: MxPPO (SEQ ID NO: 3) variant (protein)
chain: B1 chain with C170A, I365V
modifications: Synthetic (Protoporphyrinogen IX oxidase (MxPPO) of Myxococcus xanthus)
B8: I168C + I311M + M365I: MxPPO (SEQ ID NO: 3) variant (protein)
chain: B1 chain with I168C, C170A, T332L
modifications: Synthetic (Protoporphyrinogen IX oxidase (MxPPO) of Myxococcus xanthus)
B9: I168C + L332T + M365V: MxPPO (SEQ ID NO: 3) variant (protein)
chain: B1 chain with I168C, C170A, M311I, I365V
modifications: Synthetic (Protoporphyrinogen IX oxidase (MxPPO) of Myxococcus xanthus)
B10: R95A + L332T + M365I: MxPPO (SEQ ID NO: 3) variant (protein)
chain: B1 chain with R95A, C170A, M311I
modifications: Synthetic (Protoporphyrinogen IX oxidase (MxPPO) of Myxococcus xanthus)
B11: R95A + A170C + M365I: MxPPO (SEQ ID NO: 3) variant (protein)
chain: B1 chain with R95A, M311I, T332L
modifications: Synthetic (Protoporphyrinogen IX oxidase (MxPPO) of Myxococcus xanthus)
B12: R95A + I168C + M365I: MxPPO (SEQ ID NO: 3) variant (protein)
chain: B1 chain with R95A, I168C, C170A, M311I, T332L
modifications: Synthetic (Protoporphyrinogen IX oxidase (MxPPO) of Myxococcus xanthus)
B13: A170C + I311M + M365I: MxPPO (SEQ ID NO: 3) variant (protein)
chain: B1 chain with T332L
modifications: Synthetic (Protoporphyrinogen IX oxidase (MxPPO) of Myxococcus xanthus)
B14: I168C + A170C + M365V: MxPPO (SEQ ID NO: 3) variant (protein)
chain: B1 chain with I168C, M311I, T332L, I365V
modifications: Synthetic (Protoporphyrinogen IX oxidase (MxPPO) of Myxococcus xanthus)
B15: R95A + I311M + M365V: MxPPO (SEQ ID NO: 3) variant (protein)
chain: B1 chain with R95A, C170A, T332L, I365V
modifications: Synthetic (Protoporphyrinogen IX oxidase (MxPPO) of Myxococcus xanthus)
B16: L332T + M365I: MxPPO (SEQ ID NO: 3) variant (protein)
chain: B1 chain with C170A, M311I
modifications: Synthetic (Protoporphyrinogen IX oxidase (MxPPO) of Myxococcus xanthus)
B17: I168C + M365I: MxPPO (SEQ ID NO: 3) variant (protein)
chain: B1 chain with I168C, C170A, M311I, T332L
modifications: Synthetic (Protoporphyrinogen IX oxidase (MxPPO) of Myxococcus xanthus)
B18: I168C + M365V: MxPPO (SEQ ID NO: 3) variant (protein)
chain: B1 chain with I168C, C170A, M311I, T332L, I365V
modifications: Synthetic (Protoporphyrinogen IX oxidase (MxPPO) of Myxococcus xanthus)

These molecules were tested on MxPPO (assay: Herbicide tolerance test of MxPPO wild type and variants in PPO-deficient E. coli BT3(ΔPPO), growth on herbicide-containing LB agar). Details: relative to MxPPO WT, dark, up to 1000 μM (FIGS. 21-22).
Assay type: cell-based, Myxococcus xanthus
Procedure: Then, the extent of tolerance was evaluated.
With B1 the “Herbicide tolerance, flumioxazin” value was “+ (1-9 fold higher tolerance)”.
B2 was tested, and the “Herbicide tolerance, flumioxazin” value was “+ (1-9 fold higher tolerance)”.
For B3, the “Herbicide tolerance, flumioxazin” value was “+ (1-9 fold higher tolerance)”.
For B4, the “Herbicide tolerance, flumioxazin” value was “+ (1-9 fold higher tolerance)”.

Same assay, conditions: relative to MxPPO WT, dark, up to 4000 μM (FIGS. 23-24)
In the case of B2, the “Herbicide tolerance, sulfentrazone” value is reported as “+ (1-9 fold higher tolerance)”.
B3 was tested, and the “Herbicide tolerance, sulfentrazone” value was “+++ (100-999 fold higher tolerance)”.
In the case of B4, the “Herbicide tolerance, sulfentrazone” value is reported as “++ (10-99 fold higher tolerance)”.

Same assay, conditions: relative to MxPPO WT, light, 2000 μM (FIG. 14)
With B5 the “Herbicide tolerance, tiafenacil” value was “+ (1-9 fold higher tolerance)”.
For B6, the “Herbicide tolerance, tiafenacil” value was “+ (1-9 fold higher tolerance)”.
B7 was tested, and the “Herbicide tolerance, tiafenacil” value was “+ (1-9 fold higher tolerance)”.
For B8, the “Herbicide tolerance, tiafenacil” value was “+ (1-9 fold higher tolerance)”.
In the case of B9, the “Herbicide tolerance, tiafenacil” value is reported as “+ (1-9 fold higher tolerance)”.

Same assay, conditions: relative to MxPPO WT, light, up to 400 μM (FIGS. 15-17)
In the case of B5, the “Herbicide tolerance, flumioxazin” value is reported as “++ (10-99 fold higher tolerance)”.
In the case of B10, the “Herbicide tolerance, flumioxazin” value is reported as “+ (1-9 fold higher tolerance)”.
With B11 the “Herbicide tolerance, flumioxazin” value was “+ (1-9 fold higher tolerance)”.
With B12 the “Herbicide tolerance, flumioxazin” value was “+ (1-9 fold higher tolerance)”.
With B13 the “Herbicide tolerance, flumioxazin” value was “++ (10-99 fold higher tolerance)”.
B14 was tested, and the “Herbicide tolerance, flumioxazin” value was “++ (10-99 fold higher tolerance)”.
B6 was tested, and the “Herbicide tolerance, flumioxazin” value was “+ (1-9 fold higher tolerance)”.
In the case of B15, the “Herbicide tolerance, flumioxazin” value is reported as “++ (10-99 fold higher tolerance)”.
For B7, the “Herbicide tolerance, flumioxazin” value was “+++ (100-999 fold higher tolerance)”.
B8 was tested, and the “Herbicide tolerance, flumioxazin” value was “++ (10-99 fold higher tolerance)”.
With B16 the “Herbicide tolerance, flumioxazin” value was “+ (1-9 fold higher tolerance)”.
With B17 the “Herbicide tolerance, flumioxazin” value was “+ (1-9 fold higher tolerance)”.
For B18, the “Herbicide tolerance, flumioxazin” value was “+ (1-9 fold higher tolerance)”.
In the case of B9, the “Herbicide tolerance, flumioxazin” value is reported as “+++ (100-999 fold higher tolerance)”.

Same assay, conditions: relative to MxPPO WT, light, up to 1000 μM (FIGS. 18-20)
In the case of B5, the “Herbicide tolerance, sulfentrazone” value is reported as “+ (1-9 fold higher tolerance)”.
In the case of B10, the “Herbicide tolerance, sulfentrazone” value is reported as “+ (1-9 fold higher tolerance)”.
B11 was tested, and the “Herbicide tolerance, sulfentrazone” value was “+ (1-9 fold higher tolerance)”.
B12 was tested, and the “Herbicide tolerance, sulfentrazone” value was “+ (1-9 fold higher tolerance)”.
B13 was tested, and the “Herbicide tolerance, sulfentrazone” value was “+ (1-9 fold higher tolerance)”.
With B14 the “Herbicide tolerance, sulfentrazone” value was “++ (10-99 fold higher tolerance)”.
B6 was tested, and the “Herbicide tolerance, sulfentrazone” value was “+ (1-9 fold higher tolerance)”.
With B15 the “Herbicide tolerance, sulfentrazone” value was “+ (1-9 fold higher tolerance)”.
With B7 the “Herbicide tolerance, sulfentrazone” value was “++ (10-99 fold higher tolerance)”.
B8 was tested, and the “Herbicide tolerance, sulfentrazone” value was “+ (1-9 fold higher tolerance)”.
In the case of B16, the “Herbicide tolerance, sulfentrazone” value is reported as “+ (1-9 fold higher tolerance)”.
B17 was tested, and the “Herbicide tolerance, sulfentrazone” value was “+ (1-9 fold higher tolerance)”.
With B18 the “Herbicide tolerance, sulfentrazone” value was “+ (1-9 fold higher tolerance)”.
With B9 the “Herbicide tolerance, sulfentrazone” value was “++ (10-99 fold higher tolerance)”.

The molecules below were run on MxPPO (assay: PPO enzyme activity of purified MBP-fused MxPPO wild type and variants). Details: PPO enzyme activity of purified MxPPO protein, relative to wild type.
Assay type: biochemical, Myxococcus xanthus
In the case of B5, the “Activity (%)” value is reported as 71%.
With B10 the “Activity (%)” value was 38%.
In the case of B1, the “Activity (%)” value is reported as 52%.
B11 was tested, and the “Activity (%)” value was 41%.
With B12 the “Activity (%)” value was 38%.
B13 was tested, and the “Activity (%)” value was 69%.
B14 was tested, and the “Activity (%)” value was 45%.
With B6 the “Activity (%)” value was 68%.
B15 was tested, and the “Activity (%)” value was 37%.
B7 was tested, and the “Activity (%)” value was 55%.
B2 was tested, and the “Activity (%)” value was 44%.
In the case of B3, the “Activity (%)” value is reported as 35%.
B8 was tested, and the “Activity (%)” value was 47%.
In the case of B16, the “Activity (%)” value is reported as 80%.
B17 was tested, and the “Activity (%)” value was 45%.
For B18, the “Activity (%)” value was 42%.
B9 was tested, and the “Activity (%)” value was 49%.
B4 was tested, and the “Activity (%)” value was 40%.
